PMC11332829, “Elucidating regulation of polyhydroxyalkanoate metabolism in Ralstonia eutropha: Identification of transcriptional regulators from phasin and depolymerase genes”

Tests used:
[1] = biological target: T1, H16_B0227 (H-NS-like DNA-binding protein) (Ralstonia eutropha H16) (UniProt Q0K4P6); assay: EMSA; settings: EMSA: labeled DNA in TBE/glycerin-bromophenol blue with herring sperm DNA, 15 min at 30 C, 6% native PAGE at 4 C (protein eluted in 100 mM Tris-HCl pH 8, 150 mM)
T1 sequence: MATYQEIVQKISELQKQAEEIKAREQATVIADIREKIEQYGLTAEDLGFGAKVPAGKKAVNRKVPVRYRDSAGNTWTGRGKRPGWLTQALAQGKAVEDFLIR

[2] = biological target: T2, PpiB (peptidyl-prolyl cis-trans isomerase) (Ralstonia eutropha H16?) (UniProt Q0KCB2); assay: EMSA; settings: EMSA: labeled DNA in TBE/glycerin-bromophenol blue with herring sperm DNA, 15 min at 30 C, 6% native PAGE at 4 C (protein eluted in 100 mM Tris-HCl pH 8, 150 mM)
T2 sequence: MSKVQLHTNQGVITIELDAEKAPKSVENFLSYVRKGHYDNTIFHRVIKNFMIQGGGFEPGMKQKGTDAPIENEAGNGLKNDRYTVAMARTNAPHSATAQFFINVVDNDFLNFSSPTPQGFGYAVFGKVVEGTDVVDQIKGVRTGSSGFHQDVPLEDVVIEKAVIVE

[3] = biological target: T3, H16_B1672 (HTH XRE-family like protein) (Ralstonia eutropha H16) (UniProt Q0K0L7); assay: EMSA; settings: EMSA: labeled DNA in TBE/glycerin-bromophenol blue with herring sperm DNA, 15 min at 30 C, 6% native PAGE at 4 C (protein eluted in 100 mM Tris-HCl pH 8, 150 mM)
T3 sequence: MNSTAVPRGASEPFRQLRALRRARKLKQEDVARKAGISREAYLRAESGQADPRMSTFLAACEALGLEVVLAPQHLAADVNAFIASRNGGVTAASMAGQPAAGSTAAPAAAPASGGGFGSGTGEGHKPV

[4] = biological target: T4, H16_B1672 (HTH XRE-family like protein) (Ralstonia eutropha H16, UniProt Q0K0L7 1-128); assay: EMSA; settings: EMSA: labeled DNA in TBE/glycerin-bromophenol blue with herring sperm DNA, 15 min at 30 C, 6% native PAGE at 4 C (protein eluted in 100 mM Tris-HCl pH 8, 150 mM)
T4 sequence: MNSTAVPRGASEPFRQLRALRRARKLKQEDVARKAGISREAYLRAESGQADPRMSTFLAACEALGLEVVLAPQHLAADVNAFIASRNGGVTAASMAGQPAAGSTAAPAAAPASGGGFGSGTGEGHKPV

[5] = biological target: T4, H16_B1672 (HTH XRE-family like protein); assay: EMSA; EMSA: labeled DNA in TBE/glycerin-bromophenol blue with herring sperm DNA, 15 min at 30 C, 6% native PAGE at 4 C (protein eluted in 100 mM Tris-HCl pH 8, 150 mM NaCl, 1 mM EDTA, 2.5 mM desthiobiotin); pull-down: crude extract, 0.5x TBE, salmon sperm DNA, 1 h at 8 C; settings: protein: recombinant; tags: Strep-tag; chain copies: 2; label: 5'-32P on MG0235; blunt

## ATCGAATTCGGACCCGCGTCCGAGGTATCGCAGCGCCTGGCTGACATCATGCTTGAGGCGTTGCGTCCAGTGTGATGGCGGCGGCGGGATGGCTGGTCACGCCCTATCGGATCGGCGGTGAACCATCGAATTCCGGCCGTTCACGTAACAGGATGCGGAAGACCGGTACGGGGTCGCAAGCAAGCGGGCCCCGCCAGCGGCGCGGCGCTTGATGTTTGGCGTTGCAGCAAGGCCTGTCCGACATATAGTGAAATCCTGGC (double strand) [PphaZ3 PCR fragment, EMSA]
[1]
  binding: no binding
[2]
  binding: no binding
[3]
  binding: no binding

## ATCGGATCCGGGTGCTGCGCAATGCGGGCTTCAGCGCAGTTGGCGTGCCCGACAGCCGCATGGCCGGCTTCGTGCAAGGTGGGCGGGCGGGCGACAGGCTTCTGCCGCGGGTGCGTAGGTGGGAAGGTGGCGCTGGTGCACTGAGAAGTGCTGCGCGCGGCTCAGGTGCCGTCGATGTCGAATGGACTGGCTGCGGGAGGCTCCGGTCGAATTCGAT (double strand) [PphaZ5 PCR fragment, EMSA]
[1]
  binding: no binding
[2]
  binding: no binding
[3]
  Kd: 1500 nM

## PphaZ5 PCR fragment, EMSA
[4]
  Kd: 1500 nM

B1: PphaP1 100-mer (MG0235/MG0236), EMSA (dsDNA)
DNA 1: TGGCGTCACAGCCGCTCCCGTGTATCGCCAGCAACGTTGTTTGTGCATTGCACAAAATCCACTTGACATTGGATCTGGCGCCCCTAAAATAGGAATTGTT
DNA 2: AACAATTCCTATTTTAGGGGCGCCAGATCCAATGTCAAGTGGATTTTGTGCAATGCACAAACAACGTTGCTGGCGATACACGGGAGCGGCTGTGACGCCA
[5]
  Kd: 175 nM
